Experimental data: patent US10053716B2, “4-amino cinnamic acid production method using enzyme” (JAPAN SCIENCE AND TECHNOLOGY AGENCY, priority 2014, dated 2018)

What was measured:
Assay type in all cases: biochemical
[1] = 4APAL activity of Escherichia coli recombinant enzyme crude extract; conditions: crude extract, NST37(DE) host, 20 mM 4-aminophenylalanine
Protocol: (§1) [Measurement of Enzyme Activity of Escherichia coli Recombinant Enzyme Crude Extract]
(§2) Escherichia coli was inoculated into 5 ml of LB medium containing 100 mg/L ampicillin sodium or 100 mg/L kanamycin sulfate, and cultured overnight at 37° C. It was then inoculated into 200 ml of the same culture medium and cultured to an O.D. of 0.6, isopropyl-β-thiogalactopyranoside (IPTG) was added to a final concentration of 0.5 mM, and culturing was conducted for 12 hours at 28° C.
(§3) The cultured cells were collected and suspended in 20 mM potassium phosphate buffer (pH 7.5) and subjected to ultrasonic disruption and the supernatant was used as a crude extract for activity measurement. The enzyme activity was measured and quantified by measuring the absorbance at the absorption wavelength of the reaction product using a spectrophotometer, for a period of 5 minutes. For PAL activity, the crude extract was added to 100 mM Tris Buffer (pH 8.0) and 20 mM phenylalanine, reaction was conducted, and production of cinnamic acid was measured by the change in absorbance at a wavelength of 290 nm, while for 4APAL activity, 20 mM 4-aminophenylalanine was used as substrate and the absorbance at a wavelength of 315 nm due to 4-aminocinnamic acid was measured and quantified.

[2] = PAL activity of Escherichia coli recombinant enzyme crude extract; conditions: crude extract, NST37(DE) host, 20 mM phenylalanine
Protocol: as §1, §2, §3

[3] = Km and kcat of recombinant purified enzyme for phenylalanine; conditions: purified His-tag enzyme
Protocol: (§4) [Measurement of Enzyme Activity of Escherichia coli Recombinant Purified Enzyme]
(§5) Escherichia coli was inoculated into 5 ml of LB medium containing 100 mg/L ampicillin sodium or 100 mg/L kanamycin sulfate, and cultured overnight at 37° C. It was then used to inoculate 200 ml of the same culture medium and cultured to an O.D of 0.6, IPTG was added to a final concentration of 0.5 mM, and the incubation was continued for 12 hours at 28° C. The rotational speed during cultures was 120 rpm. The cultured cells were collected and suspended in 20 mM potassium phosphate buffer (pH 7.5) and subjected to ultrasonic disruption, and after centrifugal separation, the supernatant was purified using a His-Trap column and the enzyme activity was measured. The method of measuring the enzyme activity was according to the method for the crude extract described above.
(§6) Since pET28AtPAL4 and its mutants and RgPAL were produced as fusion proteins with His-tag in the Escherichia coli of Example 3, these enzymes could be easily purified using an affinity column. After culturing the producing cells, the cells were collected, disrupted and purified. The purified enzymes were used to calculate the Km values and kcat values.

[4] = Km and kcat of recombinant purified enzyme for 4-aminophenylalanine; conditions: purified His-tag enzyme
Protocol: as §4, §5, §6

With “AtPAL4: PAL derived from the plant Arabidopsis thaliana, amino acid sequence SEQ ID NO: 4” the 4APAL activity [1] was 0.012 µmol/min/mg, the PAL activity [2] was 0.18 µmol/min/mg and the “Kcat value, Phenylalanine” value [3] was 5.1 s⁻¹. The “Kcat value, 4-Aminophenylalanine” value [4] was >0.40 s⁻¹ and the Km [4] was > 40 mM.
